Consider one protein from doi:10.1101/2024.04.06.588386, “Structural plasticity of 2A proteins in the Parechovirus family” (bioRxiv, 2024).

The data set concerns the molecule itself. The experiment in a line: SEC-SAXS; Superdex S75 Increase 5/150; 20 mM Hepes-NaOH pH 7.4, 150 mM NaCl, 4 mM TCEP, 1% v/v glycerol; molecular weight estimates and fit of crystallographic dimers (CRYSOL, NMA).

B1: HPeV1-2A^FL (full-length 2A^H/NC protein of human parechovirus 1) (natural protein)
chain: SPYGQQPQNRMMKLAYLDRGFYKHYGIIVGDHVYQLDSDDIFKTALTGKAKFTKTKLTSDWVIEEECELDYFRIKYLESAVDSEHIFSVDKNCETIAKDIFGTHTLSQHQAIGLVGTILLTAGLMSTIKTPVNAVTIKEFFNHAIDGDEQ
notes: also called full-length HPeV1-2A
In the case of B1, the “stoichiometry N” value is 2.

For orientation: stoichiometry N means a count of units in the complex or per binding partner.
